Reference: publication PMC6592559
Ends that are not written are not given here.

Target: T1, PDF receptor (PDFR), endogenous in the insulin producing cells (Drosophila melanogaster (endogenous in fly brain)) (UniProt Q9W4Y2)
T1 sequence: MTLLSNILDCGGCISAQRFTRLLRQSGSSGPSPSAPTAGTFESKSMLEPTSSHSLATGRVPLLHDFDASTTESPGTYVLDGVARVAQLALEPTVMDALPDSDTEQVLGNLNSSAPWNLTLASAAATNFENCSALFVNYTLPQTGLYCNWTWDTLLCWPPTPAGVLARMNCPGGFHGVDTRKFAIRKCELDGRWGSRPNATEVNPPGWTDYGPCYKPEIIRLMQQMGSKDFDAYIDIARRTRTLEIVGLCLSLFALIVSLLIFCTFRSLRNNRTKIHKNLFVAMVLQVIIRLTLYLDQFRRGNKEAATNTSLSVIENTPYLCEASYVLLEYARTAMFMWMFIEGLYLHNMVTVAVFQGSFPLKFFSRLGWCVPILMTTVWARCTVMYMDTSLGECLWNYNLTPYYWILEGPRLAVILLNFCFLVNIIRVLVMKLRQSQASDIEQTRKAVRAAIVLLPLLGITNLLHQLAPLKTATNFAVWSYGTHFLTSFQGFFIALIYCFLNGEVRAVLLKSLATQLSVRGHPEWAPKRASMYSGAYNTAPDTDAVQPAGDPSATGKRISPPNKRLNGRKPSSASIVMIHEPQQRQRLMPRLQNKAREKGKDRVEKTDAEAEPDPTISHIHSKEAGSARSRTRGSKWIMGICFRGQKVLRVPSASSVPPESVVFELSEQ

NSELINSLLSLPKNMNDA-NH2 [Pigment Dispersing Factor (PDF), synthetic peptide] was tested, and the cAMP FRET signal (Epac1camps) in the IPCs of dissected brains, 10 uM PDF bath-applied, 100-1000 s, against the HL3 negative control; no increase in the PDFR-null han mutant was 10%.
